# Assay results as given in US20110311569A1.
# Where two headings read alike, the source gives them in different places.
# Key:
# Assay in all cases: cell-based or functional assay
# [1] = biological target: SF162 Env with V3 substitution D25E (HIV-1 isolate SF162) (UniProt P19551)
# [2] = biological target: SF162 Env with clade H consensus V3 region (HIV-1 isolate SF162; HIV-1 clade H consensus) (UniProt P19551)
# [3] = biological target: SF162 Env with V3 substitution A22T (HIV-1 isolate SF162) (UniProt P19551)
# [4] = biological target: SF162 Env with clade B consensus V3 region (identical to that of JR-FL) (HIV-1 isolate SF162; HIV-1 clade B consensus) (UniProt P19551)
# [5] = biological target: JR-FL Env N160K/E168K mutant (HIV-1 isolate JR-FL)
# [6] = biological target: SF162 Env with GKV at positions 167-169 (HIV-1 isolate SF162) (UniProt P19551)
# [7] = biological target: SF162 Env with V3 substitution T13H (HIV-1 isolate SF162) (UniProt P19551)
# [8] = biological target: SF162 Env with clade A1 consensus V3 region (HIV-1 isolate SF162; HIV-1 clade A1 consensus) (UniProt P19551)
# [9] = biological target: SF162 Env with clade F consensus V3 region (HIV-1 isolate SF162; HIV-1 clade F consensus) (UniProt P19551)
# [10] = biological target: HIV-1 SF162 Env (parental) (HIV-1 isolate SF162) (UniProt P19551)
# [11] = biological target: SF162 Env with CRF01_AE consensus V3 region (HIV-1 isolate SF162; HIV-1 CRF01_AE consensus) (UniProt P19551)
# [12] = biological target: SF162 Env with CRF02_AG consensus V3 region (HIV-1 isolate SF162; HIV-1 CRF02_AG consensus) (UniProt P19551)
# [13] = biological target: SF162 Env with clade C consensus V3 region (HIV-1 isolate SF162; HIV-1 clade C consensus) (UniProt P19551)
# [14] = biological target: SF162 Env with clade B consensus V3 region (identical to that of JR-FL) (HIV-1 isolate SF162; HIV-1 clade B consensus) (UniProt P19551); remark: listed apart in the source
# [15] = biological target: chimeric SF162 Env with the V1/V2 domain of JR-FL (HIV-1 isolate SF162; HIV-1 isolate JR-FL) (UniProt P19551)
# [16] = biological target: chimeric JR-FL Env with the V1/V2 domain of SF162 (HIV-1 isolate JR-FL; HIV-1 isolate SF162) (UniProt P19551)
# [17] = biological target: SF162 Env with NI at positions 160-161 (HIV-1 isolate SF162) (UniProt P19551)
# [18] = biological target: SF162 Env with GKV at positions 167-169 (HIV-1 isolate SF162) (UniProt P19551); remark: listed apart in the source
# [19] = biological target: HIV-1 JR-FL Env (parental) (HIV-1 isolate JR-FL)
# [20] = biological target: SF162 Env with NI at positions 160-161 and GKV at positions 167-169 (HIV-1 isolate SF162) (UniProt P19551)
# [21] = biological target: HIV-1 SF162 Env (parental) (HIV-1 isolate SF162) (UniProt P19551); remark: listed apart in the source
# [22] = biological target: JR-FL Env with GK at positions 167-168 (HIV-1 isolate JR-FL)
substance,measurement,setting,value
monoclonal antibody 2909,fold increase in ND50 over SF162,[1],2.3 fold
same,ND50 (pseudovirus neutralization),[2],0.17 µg/mL
same,ND50 ratio (fold increase in ND50 over the SF162 sequence),[2],2930 fold
same,fold increase in ND50 over SF162,[3],46 fold
same,ND50 (pseudovirus neutralization),[4],0.051 µg/mL
same,ND50 ratio (fold increase in ND50 over the SF162 sequence),[4],879 fold
same,ND50 (pseudovirus neutralization),[5],< 0.04 ng/mL
same,neutralization potency relative to 2F5,[5],> 140 fold
same,neutralization potency relative to 2G12,[5],> 500 fold
same,neutralization potency relative to IgG-b12,[5],20 fold
same,neutralization potency relative to a pool of potent V3-specific mAbs,[5],4000 fold
same,percent neutralization at 20 ng/ml (% neutralization at 20 ng/ml),[5],> 99
same,"fold increase in 2909 concentration required for 50% neutralization, over SF162",[6],> 1000 fold
same,fold increase in ND50 over SF162,[7],8.3 fold
same,ND50 (pseudovirus neutralization),[8],0.0064 µg/mL
same,ND50 ratio (fold increase in ND50 over the SF162 sequence),[8],110 fold
same,ND50 (pseudovirus neutralization),[9],0.0076 µg/mL
same,ND50 ratio (fold increase in ND50 over the SF162 sequence),[9],131 fold
same,ND50 (pseudovirus neutralization),[10],5.8e-05 µg/mL
same,ND50 (pseudovirus neutralization),[11],> 20 µg/mL
same,ND50 ratio (fold increase in ND50 over the SF162 sequence),[11],> 344000 fold
same,ND50 (pseudovirus neutralization),[12],0.037 µg/mL
same,ND50 ratio (fold increase in ND50 over the SF162 sequence),[12],637 fold
same,ND50 (pseudovirus neutralization),[13],0.0048 µg/mL
same,ND50 ratio (fold increase in ND50 over the SF162 sequence),[13],83 fold
same,ND50 (pseudovirus neutralization),[14],0.145 µg/mL
same,ND50 (pseudovirus neutralization),[15],> 10 µg/mL
same,ND50 (pseudovirus neutralization),[16],0.065 µg/mL
same,ND50 (pseudovirus neutralization),[17],> 10 µg/mL
same,ND50 (pseudovirus neutralization),[18],0.54 µg/mL
same,ND50 (pseudovirus neutralization),[19],> 10 µg/mL
same,ND50 (pseudovirus neutralization),[20],> 10 µg/mL
same,ND50 (pseudovirus neutralization),[21],0.00049 µg/mL
same,ND50 (pseudovirus neutralization),[22],> 10 µg/mL
